The test system of this series is dPsCas13b-133FSY (in HEK293T) A133FSY (fluorosulfate-L-tyrosine) (Prevotella sp. P5-125). Kind of series: pulldown. The conditions noted are these: RIP RT-qPCR in HEK293T; no enrichment without crRNA. On the technique in general: Real-time PCR tracks product formation cycle by cycle.

We go through one substance from patent US20240262791.

crACTB guide ; ACTB mRNA displayed a binding signal (fold over dPsCas13b-WT) of 4.
